20 molecules from patent US20250186614A1, “COMPACT DRUG RESPONSIVE DOMAINS FOR REGULATION OF FUNCTION/ABUNDANCE AND DELIVERY OF POLYPEPTIDE PAYLOADS” (OBSIDIAN THERAPEUTICS, INC., priority 2022, published 2025) can be followed below.

Substitutions are numbered along the chain they refer to. Names may count otherwise.

B1: FKBP-256: FKBP13 DRD-AcGFP construct of Table 10 (protein)
chain: HCPIKSRKGDVLHMHYTGKLEDGTEFDSSLPRNQPFVFSLGTGERIKGWDQGLLGMCEGEKRKLVIPSELGYGERGWPPKIPGGATLVFEVELLKIMR
modifications: Description of sequence: Construct Name: FKBP-256; Mutation(s): Q72R Q84E A117W V85R DRD E137M
B2: FKBP-278: FKBP13 DRD-AcGFP construct of Table 10 (protein)
chain: B1 chain with Q34R, E90F, M97E
modifications: Description of sequence: Construct Name: FKBP-278; Mutation(s): Q72R Q74R Q84E A117W V85R E130F
B3: FKBP-279: FKBP13 DRD-AcGFP construct of Table 10 (protein)
chain: B1 chain with Q34R, K80I, M97E
modifications: Description of sequence: Construct Name: FKBP-279; Mutation(s): Q72R Q74R Q84E A117W V85R K120I
B4: FKBP-277: FKBP13 DRD-AcGFP construct of Table 10 (protein)
chain: B1 chain with Q34R, K95Y, M97E
modifications: Description of sequence: Construct Name: FKBP-277; Mutation(s): Q72R Q74R Q84E A117W V85R K135Y
B5: FKBP-276: FKBP13 DRD-AcGFP construct of Table 10 (protein)
chain: B1 chain with Q34R, M97E
modifications: Description of sequence: Construct Name: FKBP-276; Mutation(s): Q72R Q74R Q84E A117W V85R
B6: FKBP-282: FKBP13 DRD-AcGFP construct of Table 10 (protein)
chain: B1 chain with Q34W, M97E
modifications: Description of sequence: Construct Name: FKBP-282; Mutation(s): Q72R Q74W Q84E A117W V85R
B7: FKBP-283: FKBP13 DRD-AcGFP construct of Table 10 (protein)
chain: B1 chain with Q34W, K95Y, M97E
modifications: Description of sequence: Construct Name: FKBP-283; Mutation(s): Q72R Q74W Q84E A117W V85R K135Y
B8: FKBP-280: FKBP13 DRD-AcGFP construct of Table 10 (protein)
chain: B1 chain with Q34R, K80I, K95Y, M97E
modifications: Description of sequence: Construct Name: FKBP-280; Mutation(s): Q72R Q74R Q84E A117W V85R K135Y K120I
B9: FKBP-281: FKBP13 DRD-AcGFP construct of Table 10 (protein)
chain: B1 chain with Q34R, K80I, E90F, M97E
modifications: Description of sequence: Construct Name: FKBP-281; Mutation(s): Q72R Q74R Q84E A117W V85R E130F K120I
B10: FKBP-287: FKBP13 DRD-AcGFP construct of Table 10 (protein)
chain: B1 chain with Q34W, K80I, E90F, M97E
modifications: Description of sequence: Construct Name: FKBP-287; Mutation(s): Q72R Q74W Q84E A117W V85R E130F K120I
B11: FKBP-286: FKBP13 DRD-AcGFP construct of Table 10 (protein)
chain: B1 chain with Q34W, K80I, K95Y, M97E
modifications: Description of sequence: Construct Name: FKBP-286; Mutation(s): Q72R Q74W Q84E A117W V85R K135Y K120I
B12: FKBP-285: FKBP13 DRD-AcGFP construct of Table 10 (protein)
chain: B1 chain with Q34W, K80I, M97E
modifications: Description of sequence: Construct Name: FKBP-285; Mutation(s): Q72R Q74W Q84E A117W V85R K120I
B13: FKBP-284: FKBP13 DRD-AcGFP construct of Table 10 (protein)
chain: B1 chain with Q34W, E90F, M97E
modifications: Description of sequence: Construct Name: FKBP-284; Mutation(s): Q72R Q74W Q84E A117W V85R E130F
B14: FKBP-292: FKBP13 DRD-AcGFP construct of Table 10 (protein)
chain: B1 chain with K95Q, M97E
modifications: Description of sequence: Construct Name: FKBP-292; Mutation(s): Q72R Q84E A117W V85R K135Q
B15: FKBP-291: FKBP13 DRD-AcGFP construct of Table 10 (protein)
chain: B1 chain with E90N, M97E
modifications: Description of sequence: Construct Name: FKBP-291; Mutation(s): Q72R Q84E A117W V85R E130N
B16: FKBP-290: FKBP13 DRD-AcGFP construct of Table 10 (protein)
chain: B1 chain with K80I, E90F, M97E
modifications: Description of sequence: Construct Name: FKBP-290; Mutation(s): Q72R Q84E A117W V85R K120I E130F
B17: FKBP-289: FKBP13 DRD-AcGFP construct of Table 10 (protein)
chain: B1 chain with K80I, K95Y, M97E
modifications: Description of sequence: Construct Name: FKBP-289; Mutation(s): Q72R Q84E A117W V85R K120I K135Y
B18: FKBP-288: FKBP13 DRD-AcGFP construct of Table 10 (protein)
chain: B1 chain with K80I, M97E
modifications: Description of sequence: Construct Name: FKBP-288; Mutation(s): Q72R Q84E A117W V85R K120I
B19: FKBP-274: FKBP13 DRD-AcGFP construct of Table 10 (protein)
chain: B1 chain with E69K, M97E
modifications: Description of sequence: Construct Name: FKBP-274; Mutation(s): Q72R Q84E A117W V85R DRD E109K
B20: FKBP-275: FKBP13 DRD-AcGFP construct of Table 10 (protein)
chain: B1 chain with G9D, M97E
modifications: Description of sequence: Construct Name: FKBP-275; Mutation(s): Q72R Q84E A117W V85R DRD G49D

The subject of one experiment is Jurkat cells. Nature of the experiment: Tacrolimus dose response of FKBP13-AcGFP-mCherry constructs stably transduced into Jurkat cells, GFP MFI by flow cytometry. In kind it is cell-based. Also noted: Basal: unit not given here. The conditions noted are these: FIG. 41. In a few lines: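 Jurkat E6-1 cells lentivirally transduced with FKBP13-AcGFP-mCherry constructs to 10-25% mCherry+ (day 5) were dosed with tacrolimus. GFP geometric MFI in mCherry+ cells was measured by flow cytometry and fitted to dose-response curves.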
For B1, the Basal came out at 111, the FC came out at 65 and the Peak is 6851.

The experiment is the same for the next values; noted with them: FIG. 43; BR1 (Biorep 1).
Take B1: the Basal was 110 and the FC was determined as 71.46.

The experiment is the same for the next values; noted with them: FIG. 43; BR1 (Biorep 1); at 10 uM.
For B1, the “At 10 uM” value was found to be 7861.

The experiment is the same for the next values; noted with them: FIG. 43; BR2 (Biorep 2).
Molecule B1 displayed a Basal of 125 and an FC of 59.04.

Still in this experiment, the particulars now being: FIG. 43; BR2 (Biorep 2); at 10 uM.
Regarding B1, the “At 10 uM” value came to 7380.

Still in this experiment, the particulars now being: tacrolimus; FIG. 35.
Molecule B2 yielded an FC of 92.73 and a Peak of 3425.

For B3, the FC is reported as 31.33 and the Peak worked out at 3302.

The molecule B4 returned an FC of 61.04 and a Peak of 2581.

B5 displayed an FC of 7.54 and a Peak of 2859.

The same experiment, now with this note: tacrolimus; FIG. 36.
In turn, B6 gave an FC of 39.54 and a Peak of 2473.

In turn, B7 yielded an FC of 39.79 and a Peak of 1328.

With B8, the FC came out at 68.34 and the Peak is recorded as 2468.

Take B9: the FC was 77.66 and the Peak came to 2905.

Staying with this experiment, now noted: tacrolimus; FIG. 37.
The molecule B10 came in with an FC of 47.09 and a Peak of 1747.

B11 had an FC of 25.96 and a Peak of 1089.

Regarding B12, the FC is 36.71 and the Peak was determined as 2161.

Take B13: the FC amounted to 58.23 and the Peak came to 2441.

The experiment is the same for the next values; noted with them: tacrolimus; FIG. 38.
The molecule B14 showed an FC of 50.68 and a Peak of 3797.

For the molecule B15, the FC came out at 53.37 and the Peak is 3859.

The molecule B16 gave an FC of 92.89 and a Peak of 3191.

Take B17: the FC is recorded as 73.38 and the Peak is 2659.

B18 registered an FC of 30.10 and a Peak of 3718.

Staying with this experiment, now noted: tacrolimus; FIGS. 29 and 30.
In turn, B1 registered an FC of 78.

The same experiment, now with this note: tacrolimus; FIGS. 33 and 34.
With B19, the FC is 34.

B20: the FC turned out to be 56.

Staying with this experiment, now noted: tacrolimus; Jurkat cells; Table 13.
Take B19: the “Fold Change” value is on record as 34.

Regarding B2, the “Fold Change” value is 92.73.

Take B3: the “Fold Change” value was 31.33.

As for B6, the “Fold Change” value was found to be 39.54.

As for B14, the “Fold Change” value came to 50.68.

With B15, the “Fold Change” value was found to be 53.37.

Consider B7, for which the “Fold Change” value is recorded as 39.79.

With B10, the “Fold Change” value is listed as 47.09.

Consider B16, for which the “Fold Change” value is given as 92.89.

Regarding B11, the “Fold Change” value is listed as 25.96.

For B20, the “Fold Change” value is recorded as 56.

In the case of B4, the “Fold Change” value came out at 61.04.

For the molecule B17, the “Fold Change” value amounted to 73.38.

For the molecule B5, the “Fold Change” value was 7.54.

On to B8, for which the “Fold Change” value came out at 68.34.

Take B1: the “Fold Change” value was determined as 78.

In the case of B12, the “Fold Change” value is given as 36.71.

In the case of B13, the “Fold Change” value was 58.23.

As for B9, the “Fold Change” value stood at 77.66.

Take B18: the “Fold Change” value was 30.1.
